Values belong to the binder of their own block, whether it stands above or below them.
What was measured:
[1] = molecular target: T1, INTS10-INTS13-INTS14 heterotrimer (Homo sapiens, UniProt Q9NVR2;Q9NVM9;Q96SY0 1-710;1-706;1-518); experiment: fluorescence polarization; FP: 10 nM RNA, 10 mM HEPES pH 7.5, 5% glycerol, 2 mM MgCl2, 50 mM NaCl or none added, temperature not stated; EMSA: 50 mM HEPES pH 7.5, 200 mM NaCl, 2 mM MgCl2, on ice, 2 uM RNA or 1 uM DNA; details: protein: recombinant; tags: INTS13 N-terminal 2xStrep, HRV 3C cleavable (removed if needed); copies: 1;1;1; label: 5'-6-FAM; single strand
[2] = molecular target: T2, INTS13-INTS14 heterodimer (Homo sapiens, UniProt Q9NVM9;Q96SY0 1-706;1-518); experiment: as above; details: protein: recombinant; tags: INTS13 N-terminal 2xStrep, HRV 3C cleavable (removed if needed); copies: 1;1; label: 5'-6-FAM; single strand
[3] = molecular target: T3, INT cleavage module (His10-INTS4–INTS9–(2S)-INTS11) (human, UniProt Q96HW7 1-963; Q9NV88 1-658; Q5TA45 1-600); experiment: pull-down; GST-INTS13 C-terminal constructs from E. coli lysates with insect cell extracts expressing cleavage module subunits, on glutathione sepharose; 50 mM HEPES pH 7.5, 200 mM NaCl, 2 mM DTT; Coomassie gel and Western blots; details: partners not purified
T3 construct: INTS4, human; INTS9, human; INTS11, human; The tags are named in the methods of the copurification assays; also called INTS4–INTS9–INTS11; INTS4–9–11; source: insect cells (HighFive, baculovirus), coexpressed; in cell extract and purified (StrepTrap, heparin, Superose 6); not shown: His10, N-terminal, kept; tandem Strep tag (2S), N-terminal, kept; copies: + +

[4] = molecular target: T1, INTS10-INTS13-INTS14 heterotrimer; experiment: EMSA; FP: 10 nM RNA, 10 mM HEPES pH 7.5, 5% glycerol, 2 mM MgCl2, 50 mM NaCl or none added, temperature not stated; EMSA: 50 mM HEPES pH 7.5, 200 mM NaCl, 2 mM MgCl2, on ice, 2 uM RNA or 1 uM DNA; details: protein: recombinant; tags: INTS13 N-terminal 2xStrep, HRV 3C cleavable (removed if needed); copies: 1;1;1; hairpin
[5] = molecular target: T2, INTS13-INTS14 heterodimer; experiment: as above; details: protein: recombinant; tags: INTS13 N-terminal 2xStrep, HRV 3C cleavable (removed if needed); copies: 1;1; hairpin

T1 sequence (Q9NVR2 whole entry, chain 1 of 3): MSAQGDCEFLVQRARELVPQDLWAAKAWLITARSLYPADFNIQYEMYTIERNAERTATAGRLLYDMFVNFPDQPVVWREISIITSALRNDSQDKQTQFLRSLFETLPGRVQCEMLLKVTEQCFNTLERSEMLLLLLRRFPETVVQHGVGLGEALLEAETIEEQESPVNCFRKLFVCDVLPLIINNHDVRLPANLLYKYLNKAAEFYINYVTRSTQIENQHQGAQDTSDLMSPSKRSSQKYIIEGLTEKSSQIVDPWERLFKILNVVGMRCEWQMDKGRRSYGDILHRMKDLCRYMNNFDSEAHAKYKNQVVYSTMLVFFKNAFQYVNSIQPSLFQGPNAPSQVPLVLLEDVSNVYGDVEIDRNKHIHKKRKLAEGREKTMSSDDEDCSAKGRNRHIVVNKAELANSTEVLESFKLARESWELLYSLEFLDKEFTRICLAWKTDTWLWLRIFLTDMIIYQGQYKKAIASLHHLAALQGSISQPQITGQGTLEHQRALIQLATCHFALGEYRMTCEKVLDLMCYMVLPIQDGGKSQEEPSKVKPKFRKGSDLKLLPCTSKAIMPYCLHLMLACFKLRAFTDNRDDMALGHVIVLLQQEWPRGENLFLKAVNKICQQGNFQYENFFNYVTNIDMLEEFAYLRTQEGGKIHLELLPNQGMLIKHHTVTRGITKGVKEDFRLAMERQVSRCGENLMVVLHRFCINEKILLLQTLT
T1 sequence (Q9NVM9 whole entry, chain 2 of 3): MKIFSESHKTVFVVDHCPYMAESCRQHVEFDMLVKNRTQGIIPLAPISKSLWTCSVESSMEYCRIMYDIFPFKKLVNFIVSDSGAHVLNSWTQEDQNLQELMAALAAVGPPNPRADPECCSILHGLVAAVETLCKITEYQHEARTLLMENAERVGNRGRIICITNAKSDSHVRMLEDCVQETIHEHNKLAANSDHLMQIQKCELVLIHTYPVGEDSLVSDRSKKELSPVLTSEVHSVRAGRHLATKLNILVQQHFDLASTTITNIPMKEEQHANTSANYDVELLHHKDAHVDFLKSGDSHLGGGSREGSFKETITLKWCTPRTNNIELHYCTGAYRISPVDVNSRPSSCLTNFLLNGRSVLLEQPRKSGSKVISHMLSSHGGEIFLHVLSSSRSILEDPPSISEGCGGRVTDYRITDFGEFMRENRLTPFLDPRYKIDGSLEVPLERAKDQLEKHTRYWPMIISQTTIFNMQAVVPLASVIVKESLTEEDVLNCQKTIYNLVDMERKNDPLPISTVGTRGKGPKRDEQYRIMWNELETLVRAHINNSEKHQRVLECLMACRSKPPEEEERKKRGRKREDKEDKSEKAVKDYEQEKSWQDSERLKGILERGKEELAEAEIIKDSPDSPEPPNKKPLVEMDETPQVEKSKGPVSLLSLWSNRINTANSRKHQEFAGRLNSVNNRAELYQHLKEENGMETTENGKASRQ
T1 sequence (Q96SY0 whole entry, chain 3 of 3): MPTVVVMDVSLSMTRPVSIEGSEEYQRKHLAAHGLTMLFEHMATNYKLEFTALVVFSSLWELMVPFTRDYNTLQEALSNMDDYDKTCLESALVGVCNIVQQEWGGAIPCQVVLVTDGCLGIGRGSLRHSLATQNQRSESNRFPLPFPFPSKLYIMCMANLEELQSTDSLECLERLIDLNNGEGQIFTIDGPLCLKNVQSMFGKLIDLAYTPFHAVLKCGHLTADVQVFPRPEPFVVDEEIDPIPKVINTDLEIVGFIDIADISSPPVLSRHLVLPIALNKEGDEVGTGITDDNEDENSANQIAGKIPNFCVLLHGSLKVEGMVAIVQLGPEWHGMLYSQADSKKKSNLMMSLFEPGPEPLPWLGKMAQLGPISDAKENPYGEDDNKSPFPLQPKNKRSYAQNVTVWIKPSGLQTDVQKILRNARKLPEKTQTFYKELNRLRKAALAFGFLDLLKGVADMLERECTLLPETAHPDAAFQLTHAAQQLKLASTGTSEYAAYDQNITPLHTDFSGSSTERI
T2 sequence (Q9NVM9 whole entry, chain 1 of 2): as the sequence (Q9NVM9 whole entry, chain 2 of 3) above
T2 sequence (Q96SY0 whole entry, chain 2 of 2): as the sequence (Q96SY0 whole entry, chain 3 of 3) above
T3 sequence (Q96HW7 whole entry, chain 1 of 3): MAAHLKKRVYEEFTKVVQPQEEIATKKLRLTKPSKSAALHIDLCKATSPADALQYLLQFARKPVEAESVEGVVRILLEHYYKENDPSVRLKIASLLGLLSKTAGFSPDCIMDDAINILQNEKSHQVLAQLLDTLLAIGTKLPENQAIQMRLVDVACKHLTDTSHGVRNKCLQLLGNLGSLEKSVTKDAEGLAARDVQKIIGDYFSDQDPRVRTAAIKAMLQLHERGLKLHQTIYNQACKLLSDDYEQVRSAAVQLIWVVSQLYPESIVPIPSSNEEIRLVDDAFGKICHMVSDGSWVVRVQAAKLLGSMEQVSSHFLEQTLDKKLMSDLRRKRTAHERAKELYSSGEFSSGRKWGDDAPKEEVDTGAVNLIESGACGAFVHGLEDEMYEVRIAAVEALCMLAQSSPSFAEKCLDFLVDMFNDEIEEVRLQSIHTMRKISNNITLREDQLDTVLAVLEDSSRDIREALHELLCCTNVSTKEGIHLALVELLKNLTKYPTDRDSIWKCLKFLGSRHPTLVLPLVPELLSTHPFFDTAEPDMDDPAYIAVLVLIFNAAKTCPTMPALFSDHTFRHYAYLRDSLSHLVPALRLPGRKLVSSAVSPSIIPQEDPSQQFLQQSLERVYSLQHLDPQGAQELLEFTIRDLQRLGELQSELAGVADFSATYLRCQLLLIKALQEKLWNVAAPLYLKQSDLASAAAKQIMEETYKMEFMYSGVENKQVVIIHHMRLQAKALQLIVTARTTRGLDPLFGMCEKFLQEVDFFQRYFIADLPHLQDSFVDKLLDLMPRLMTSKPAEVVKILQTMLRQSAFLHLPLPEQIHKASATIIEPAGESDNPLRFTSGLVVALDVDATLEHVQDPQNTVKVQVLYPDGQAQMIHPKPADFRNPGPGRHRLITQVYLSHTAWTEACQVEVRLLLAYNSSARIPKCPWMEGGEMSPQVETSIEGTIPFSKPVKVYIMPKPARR
T3 sequence (Q9NV88 whole entry, chain 2 of 3): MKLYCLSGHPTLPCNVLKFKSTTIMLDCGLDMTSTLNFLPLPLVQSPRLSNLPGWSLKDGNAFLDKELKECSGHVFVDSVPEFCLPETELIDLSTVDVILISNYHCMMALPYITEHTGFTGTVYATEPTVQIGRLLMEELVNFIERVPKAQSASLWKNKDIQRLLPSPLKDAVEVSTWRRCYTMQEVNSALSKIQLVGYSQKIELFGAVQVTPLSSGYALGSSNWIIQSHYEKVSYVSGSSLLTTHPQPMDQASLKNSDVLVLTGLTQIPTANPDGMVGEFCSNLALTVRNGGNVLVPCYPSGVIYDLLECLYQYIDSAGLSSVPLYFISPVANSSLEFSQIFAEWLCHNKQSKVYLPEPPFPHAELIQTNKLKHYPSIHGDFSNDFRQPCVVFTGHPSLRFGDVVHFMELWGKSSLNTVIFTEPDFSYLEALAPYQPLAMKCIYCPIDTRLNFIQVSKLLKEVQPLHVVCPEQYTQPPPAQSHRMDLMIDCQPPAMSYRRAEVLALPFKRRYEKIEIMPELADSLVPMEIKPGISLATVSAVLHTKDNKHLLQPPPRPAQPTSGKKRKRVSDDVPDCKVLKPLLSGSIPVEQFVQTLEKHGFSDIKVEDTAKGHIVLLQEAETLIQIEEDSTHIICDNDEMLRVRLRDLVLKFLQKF
T3 sequence (Q5TA45 whole entry, chain 3 of 3): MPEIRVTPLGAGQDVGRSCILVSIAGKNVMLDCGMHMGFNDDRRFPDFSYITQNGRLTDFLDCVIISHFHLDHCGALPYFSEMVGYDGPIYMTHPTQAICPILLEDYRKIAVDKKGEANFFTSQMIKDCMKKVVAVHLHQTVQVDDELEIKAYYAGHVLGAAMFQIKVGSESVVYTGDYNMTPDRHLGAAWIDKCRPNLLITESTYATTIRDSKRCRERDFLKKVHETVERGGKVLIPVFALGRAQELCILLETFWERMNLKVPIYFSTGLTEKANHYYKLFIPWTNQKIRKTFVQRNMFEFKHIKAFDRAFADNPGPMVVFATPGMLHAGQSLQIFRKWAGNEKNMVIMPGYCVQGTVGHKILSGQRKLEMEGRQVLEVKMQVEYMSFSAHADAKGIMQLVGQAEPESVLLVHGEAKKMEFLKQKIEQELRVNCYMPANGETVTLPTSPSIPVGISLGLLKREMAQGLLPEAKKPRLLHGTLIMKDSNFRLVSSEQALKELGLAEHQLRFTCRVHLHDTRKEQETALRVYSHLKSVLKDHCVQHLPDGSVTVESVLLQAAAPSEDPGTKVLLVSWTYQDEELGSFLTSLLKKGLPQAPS

B1: U12 RNA (ssRNA)
RNA: UUUUUUUUUUUU
Kd [1]: 420 ± 20 nM | Kd [2]: 570 ± 50 nM

binding result [3]: binds
B2: GST-INTS13 cleavage module-binding motif (CMBM, residues 649–694) (domain or fragment, human, UniProt Q9NVM9 649-694, looked up)
chain: GPVSLLSLWSNRINTANSRKHQEFAGRLNSVNNRAELYQHLKEENG
notes: INTS13, human, conserved C-terminal helices, residues 649–694; also called GST-CMBM; INTS13 CMBM; source: E. coli BL21 Star (DE3), in lysate; not shown: GST, N-terminal, kept

B3: U1 SL4 (structured_RNA)
RNA: GGGUGGGGGACUGCGUUCGCGCUUUCCCCUGGCCGG
apparent K (half saturation) [4]: ~1000 nM | binding result [5]: binds

Reference: PMC7347597, “INTS10–INTS13–INTS14 form a functional module of Integrator that binds nucleic acids and the cleavage module” (Nature Communications, 2020)
